# Assay results reported in the DeepSol protein solubility set.
# Experiment: soluble on expression in E. coli; label from the status in PepcDB or PDB records
row,Sequence,soluble on expression in E. coli
1,MPVNIPPLLPEQLLPIPGLSLGTAEASIKRPGRKDILVITLAENTRVAGVFTRNRFCAAPVTVARSHLTGSLPIRALVINTGNANAGTGQSGIDHAHATCASLARLIGCQTQQVLPFSTGVIMEPLPVEKIITHLPQALANLAPDNWFAAAQAIMTTDIVPKGVSRQIQINGTTVTITGIAKGSGMIHPNMATMLGYIATDAAVTQPLLDDLVRYATDRSFNCVTVDGDTSTNDALILMATGQAGNTPITVSTDPAFISLQAAITEVAALLAQMIVRDGEGATKFITVQVESGKTREECTKVAYAIAHSPLIKTACFASDPNLGRILAAIGYAGIEDLDVNLVQLYLGNILVAEHGGRAASYREEDGQRIMQAPEITIQVKLNRGNASTTVWTCDLSYDYVKINADYRSLEHHHHHH,not soluble
2,MSLKSSEQMRALFPDHPEACDNTLLLTEMIGSYDEVFKYVDRMPQFDVPEGETQESWLRKKLQEGLDEKFGPNPPKEVLERLETELSVIEPLGFASYFLVVSDICNAARSMGVPVGPGRGSAAGSLVAYLTGIIAINPLEHGLLFERFLNPERVNPPDIDLDFDDRQRDKVIDYVTHKYGAEYTSQVNTFGKIKAKAAVKDANRILGYPFALGDKITKAMPPDVMGKGVPLDKIFDSSHERYGEGQEFRQLVADNPDVAKVVETAKGLEGLIRGTGVHACAFILSSTPLLDLVPMHKRDKDGMIIAGFAYPQLEEMGLMKMDFLGLRNLGIMDHCIKIIKANRGIDVDLKNIALDDKTTYEMLARGDTLGVFQLDGTAMRSLLRLMGPTCFDDIVAVLALYRPGPMGANAHISYAQRKNNREPIIPIHPELKEDLDEILAPTYHLIVYQEQIMSIARKLAGYTLGGADLLRRAMGKEGHHHHHH,soluble
3,MWRAKKPTLERRSTDGRRSSIVDWINGLSDNNNYKSDHWVEKHDEGCERMTRNGSVCAVEESEPDVPTQHREVLLTKLKIEIKNIMAEHGAKKYLNLNSPYVTSLCIAVDACIMDGLRRRLLTLFNSPSSMSLLQIIAKSNGPAQQVLDQTREIEELRTSAIPVHLIWIREALYLKSLSTIINHFIDSKSVRRYYDNSALLLDPVKGRLVATLMMAPCMVTYRRMSNRIEQEATAEELVEGATRGSTSTVPSRPPLSKIKKIHFLDNPSSYMSLQKFYDGNLSLKWVPNQLMHASSQPSSGHSNNGEFTNIWKNTINIEMQDIIYIHLHQKDEISPTCLTFVNCEGVQSAPFQLPAGQHSIAFLSSLETGLAPLLRLDPPLWVGTTKEKILPRLRKRSTAVANPAMLDYVFRLVRTSGVEPAPEDIEDPLAPTSHSPPIHDNCVSLPNSPYIVDNVDSIVNFQIGTACQSMRNQIMARAFYGWLTYVRHLRTIRTHLLHLVDTKTLICDDDCDPVDEKFWKQARAEPTEENEKEFLKRVYWRGIEGINTKEVRRMAWPYLLGLFEWNESPESRLEQFTSQYWQDIEEWRVLEAEVRRRDEEAFRAARARKAASPVREESCDVFEDPNEPTCSQHYDRENLITLFRANLHRIDKDVERCDRNLMFFSNKDNLESLRRVMYTYVRRNLEEGYTQGMCDLLAPLLVTFEDEALTLECFSLLMLRQRGKFPQRPGMSKCLLNLRSLIQVVDPQIYALISDIDYAQALSFAFRWFLLDFKRELSYECTYKVWEVIWAAQRLRITDDFAIFFGLATITNYHDVLITNNFDYTDMIKFFNEMAERHDCSRLLSSARTHVKCLQNLVQHLK,soluble
4,MGSDKIHHHHHHMDFIEVYPNAIPDELCDRLIETVNTHPGVIDGITGHGVDLEKKISRDITMDNFQELLPLRNELLNYTLKHSAQYFEKYALGLMGAVAVTLADEQGKPQTLTPDNFDTLGRHRVQPLVQYLYRSGTINIQHYQQGKGGYPHWHSEQFPQMGHNEALHRVVLYMFYLNDVEEGGETEFFYQQRKIKPKKGTMVIAPAGFTHSHRGNMPISGDKYIATSWVMFNRAEKLYAPVG,not soluble
5,GPLETDLVAVWDVALSDGVHKIEFEHGTTSGKRVVYVDGKEEIRKEWMFKLVGKETFYVGAAKTKATINIDAISGFAYEYTLEINGKSLKKYMEDRSKTTNTWVLHMDGENFRIVLEKDAMDVWCNGKKLETAGEFVDDGTETHFSIGNHDCYIKAVSSGKRKEGIIHTLIVDNREIPEIAS,soluble
6,MRIFEPGLCSVTFRSLSPQAVIDLAVANGIRAIEWGADIHVPAGDLENARDVAERTAKAGLAVSSYGSYIFAPDFTRKDLTAVLETAKALGTGHIRIWPGQRKRPSTDYSPAERRTATEALAEIARQAQDYDMTIGLEYHPNSLTDTLPSALQLAQDLALPNLFFYWQPAPGLPLEKALAEISKIGSRVCHLHIFAWLADTNRLPLADRVDYWQSCVEALPESEWTKPAYAMLEFVKGDDVGQFAEDAVTLSEILAGHRVADLEHHHHHH,soluble
7,MGSDKIHHHHHHMKALALFSGGLDSMLAMKLITAQGIEVKALNINIGFGSTSDKSEIMKKRAAMVGADFEMIDVRNSYLQEVLFNPQYGYGKHFNPCIDCHAFMFKTALAMLKEENASFIITGEVLGQRPMSQRSDAMAKVKKLALDEEDLILRPMCAKNLPLTKPEREGWVDREKLEGIIGRSRKRQLELAAKFGLEDFESPGGGCLLTLDSFAKKIRDFIEFDKDMQVNDAQLLKYGRHLRLPNGAKMIIGRNELENTLLKGLKTPKYEAIEIGDLIGAYSLVDEKISEKDLELALKIALTYTKHEVGKSYELKFKNQAYTSIAFENKADINQFFIS,not soluble
8,MVSEEEEEEDGDAEETQDSEDDEEDEMEEDDDDSDYPEEMEDDDDDASYCTESSFRSHSTYSSTPGRRKPRVHRPRSPILEEKDIPPLEFPKSSEDLMVPNEHIMNVIAIYEVLRNFGTVLRLSPFRFEDFCAALVSQEQCTLMAEMHVVLLKAVLREEDTSNTTFGPADLKDSVNSTLYFIDGMTWPEVLRVYCESDKEYHHVLPYQEAEDYPYGPVENKIKVLQFLVDQFLTTNIAREELMSEGVIQYDDHCRVCHKLGDLLCCETCSAVYHLECVKPPLEEVPEDEWQCEVCVAHKVPGVTDCVAEIQKNKPYIRHEPIGYDRSRRKYWFLNRRLIIEEDTENENEKKIWYYSTKVQLAELIDCLDKDYWEAELCKILEEMREEIHRHMDITEDLTNKARGSNKSFLAAANEEILESIRAKKGDIDNVKSPEETEKDKNETENDSKDAEKNREEFEDQSLEKDSDDKTPDDDPEQGKSEEPTEVGDKGNSVSANLGDNTTNATSEETSPSEGRSPVGCLSETPDSSNMAEKKVASELPQDVPVGDFKSEKSNGELSESPGAGKGASGSTRIITRLRNPDSKLSQLKSQQVAAAAHEANKLFKEGKEVLVVNSQGEISRLSTKKEVIMKGNINNYFKLGQEGKYRVYHNQYSTNSFALNKHQHREDHDKRRHLAHKFCLTPAGEFKWNGSVHGSKVLTISTLRLTITQLENNIPSSFLHPNWASHRANWIKAVQMCSKPREFALALAILECAVKPVVMLPIWRESLGHTRLHRMTSIEREEKEKVKKKKKK,soluble
9,SMNFYSAYQHGFVRVAACTHHTTIGDPAANAASVLDMARACHDDGAALAVFPELTLSGYSIEDVLLQDSLLDAVEDALLDLVTESADLLPVLVVGAPLRHRHRIYNTAVVIHRGAVLGVVPKSYLPTYREFYERRQMAPGDGERGTIRIGGADVAFGTDLLFAASDLPGFVLHVEICEDMFVPMPPSAEAALAGATVLANLSGSPITIGRAEDRRLLARSASARCLAAYVYAAAGEGESTTDLAWDGQTMIWENGALLAESERFPKGVRRSVADVDTELLRSERLRMGTFDDNRRHHRELTESFRRIDFALDPPAGDIGLLREVERFPFVPADPQRLQQDCYEAYNIQVSGLEQRLRALDYPKVVIGVSGGLDSTHALIVATHAMDREGRPRSDILAFALPGFATGEHTKNNAIKLARALGVTFSEIDIGDTARLMLHTIGHPYSVGEKVYDVTFENVQAGLRTDYLFRIANQRGGIVLGTGDLSELALGWSTYGVGDQMSHYNVNAGVPKTLIQHLIRWVISAGEFGEKVGEVLQSVLDTEITPELIPTGEEELQSSEAKVGPFALQDFSLFQVLRYGFRPSKIAFLAWHAWNDAERGNWPPGFPKSERPSYSLAEIRHWLQIFVQRFYSFSQFKRSALPNGPKVSHGGALSPRGDWRAPSDMSARIWLDQIDREVPKG,soluble
10,MGSDKIHHHHHHLAARNFPPVLPFSPRKIAVLHAKAVGDFIVILPALDAIKRTYPEAELILLAKPWVKEFFSGRPSPVDRVLSLPPLAGVNDPVESKGRVPSTGSGVYPVEVELFCQAMQGEKLDVVIHMQGDGKSVNPFINKFAARVTAGMCNPPAESLDRSIPYVHYQSEVLRNLEVASLIGARTTSTGFEPRIEVTESDEQETESVRQTIKGKPYVVIHPGADDIRRVWPAVRFAEAADCLLEKGYAVVVTGTPKEEERVATVIRAMSRPAIPCTRLGLCGLAALLQHSALVISNDTGPLHLARAVGARTVGIYWAPNILNWGPLSRDRHRLAIGWQLECPQCGIRPVSPWPFQPQTSDCSHPYSFVESVPVAEVLALATELLGLTTEH,not soluble
11,MGSDKIHHHHHHMDEVSVWRRAWTYVVTTLAQSLPNRCLLCHQTVIEGSGVCSLCLQRCLYHGPVCLGCGRSLVNDGAFCGACRVLGALPVIAPCSYHQGLGASIAAIKYQGQFAALDVLCRALMARVTQLTEEGEIPPVSLLLPVPLHPKRLKTRGFNQAYEIALLLSKLSGIPLCDDLLRRRRDTQPQAGLTGKARRKNLLGAFELTGSCHQGSVALVDDVVTTGSTANEIATMLQLQGVRVQVWCLARAEAPGLLDTFS,not soluble
12,MSLYHDGPIEVLPGVWLGAEESVGRWDIWAGNTAGNTVRVVNVAQEVEDPFDAAGPGRVSGWPRPSALPAETAKRRMKLRTYPAVVGDGTRPHVEYCHARWSHGELGLADLPADACLGDVLYPRAPENNEGLWRFWETIRWMEEGRQGGTPILIHSQCGVSRSATLAIAYTMALAAAGAMPQYLGHIRVMQDAYDFVKGKSCWIGPNHSLVFQLVDFARNLTTLLSEGHHHHHH,soluble
13,AERGELDLTGAKQNTGVWLVKVPKYLSQQWAKASGRGEVGKLRIAKTQGRTEVSFTLNEDLANIHDIGGKPASVSAPREHPFVLQSVGGQTLTVFTESSSDKLSLEGIVVQRAECRPA,soluble
14,MTGNLVTKNSLTPDVRNGIDFKIADLSLADFGRKELRIAEHEMPGLMSLRREYAEVQPLKGARISGSLHMTVQTAVLIETLTALGAEVRWASCNIFSTQDHAAAAVVVGPHGTPDEPKGVPVFAWKGETLEEYWWAAEQMLTWPDPDKPANMILDDGGDATMLVLRGMQYEKAGVVPPAEEDDPAEWKVFLNLLRTRFETDKDKWTKIAESVKGVTEETTTGVLRLYQFAAAGDLAFPAINVNDSVTKSKFDNKYGTRHSLIDGINRGTDALIGGKKVLICGYGDVGKGCAEAMKGQGARVSVTEIDPINALQAMMEGFDVVTVEEAIGDADIVVTATGNKDIIMLEHIKAMKDHAILGNIGHFDNEIDMAGLERSGATRVNVKPQVDLWTFGDTGRSIIVLSEGRLLNLGNATGHPSFVMSNSFANQTIAQIELWTKNDEYDNEVYRLPKHLDEKVARIHVEALGGHLTKLTKEQAEYLGVDVEGPYKPDHYRY,soluble
15,MGAPLADILHALVLKIEDQRLGTHASVLLLSEDGKRVLTGAAPHLPDSYNQVIHGVEIGPEVGSCGTAAYTGQRVIVEDIEHHPYWALYKSFALVHGLRACWSEPIKDTQGKVLGTFAMYYKEIKSPTVADLTLIAEAARLASLAIERSRSLEFQRLAVKILEHHHHHH,soluble
16,GASALSLSLLSISRSGNTVTLIGDFPDEAAKAALMTALNGLLAPGVNVIDQIHVDPVVRSLDFSSAEPVFTASVPIPDFGLKVERDTVTLTGTAPSSEHKDAVKRAATSTWPDMKIVNNIEVTGQAPPGPPA,soluble
